The values below come from patent US20260092110A1 (Kyowa Kirin, published 2026).

The target in assay [1] is T1, human MOG (hMOG) expressed on HEK293, Expi293F or L929 cells (human, UniProt Q16653 30-247).
T1 construct: also called hMOG/HEK293; hMOG/HEK293F
T1 chain: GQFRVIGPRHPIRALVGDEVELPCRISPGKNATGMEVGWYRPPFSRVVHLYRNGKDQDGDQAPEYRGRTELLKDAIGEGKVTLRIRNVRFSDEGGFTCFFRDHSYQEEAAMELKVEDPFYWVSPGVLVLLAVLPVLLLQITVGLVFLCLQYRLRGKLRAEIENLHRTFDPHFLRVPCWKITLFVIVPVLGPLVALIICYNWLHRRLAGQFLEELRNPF
In words: flow cytometry on HEK293 cells transiently expressing human MOG; antibody at 10 µg/mL, RPE-labelled goat anti-human antibody; negative control anti-AVM antibody. On the procedure:
(§1) rMOG/HEK293F, mMOG/IEK293F, cMOG/HEK293 and hMOG/HEK293 cells were suspended in a Staining Buffer (SB) of PBS containing 0.1% NaN₃ and 1% FBS each at a concentration of 5×10⁵ cells/mL and dispensed to a round-bottom 96-well plate (manufactured by Becton Dickinson).
(§2) After centrifugation (2000 rpm, 4° C., two minutes), the supernatants were removed, and the antibodies obtained in Example 6 at 10 μg/mL were added to the pellets. After suspending the pellets, the plate was left to stand at ice temperature for 30 minutes. The supernatants were removed after further centrifugation (2000 rpm, 4° C., two minutes), and the pellets were washed with SB. Then, 1 μg/mL RPE fluorescently labeled goat anti-human antibody (manufactured by […]) was added, and the plate was incubated at ice temperature for 30 minutes.
(§3) After washing with SB, the cells were suspended in SB, and the fluorescence intensities of the cells were measured using a flow cytometer FACS CANTO II (manufactured by Becton Dickinson). As the negative control, an anti-AVM antibody was used.
Background: In flow cytometry, cells or beads pass a laser one at a time.

The target of assay [2] is T2, extracellular domain protein of rat MOG to which GST is added at the C-terminus (rMOG-GST) (rat).
T2 construct: whole construct entry
Put plainly: SPR Biacore T-100, antibody captured, rMOG-GST analyte; kd outside the measurement range. On the procedure: (§4) The antibodies were immobilized on CM5 sensor chips using a Human antibody Capture kit, and the binding abilities were evaluated using rMOG-GST produced in Example 4 as an analyte. The obtained sensorgrams were analyzed with BIA evaluation software, and the dissociation constants (KD values) were thus calculated.
Background: SPR reads the build-up and loss of mass on a sensor chip optically.

Assay [3] deals with T3, cynomolgus monkey MOG (cMOG) expressed on HEK293 cells (cynomolgus monkey, UniProt Q9BGS7 30-247).
T3 construct: also called cMOG/HEK293
T3 sequence: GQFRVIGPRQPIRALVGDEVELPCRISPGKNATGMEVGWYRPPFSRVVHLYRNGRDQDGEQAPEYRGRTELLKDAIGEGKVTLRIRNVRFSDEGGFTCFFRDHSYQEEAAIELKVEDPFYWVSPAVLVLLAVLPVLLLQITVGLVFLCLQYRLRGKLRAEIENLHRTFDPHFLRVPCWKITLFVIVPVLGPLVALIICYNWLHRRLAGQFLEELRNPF
In words: flow cytometry on HEK293 cells transiently expressing cynomolgus monkey MOG; antibody at 10 µg/mL, RPE-labelled goat anti-human antibody; negative control anti-AVM antibody. On the procedure: as §1, §2, §3

Assay [4] has as its target T4, rat MOG (rMOG) expressed on HEK293F cells (rat, UniProt Q63345 28-245).
T4 construct: also called rMOG/HEK293F
T4 sequence: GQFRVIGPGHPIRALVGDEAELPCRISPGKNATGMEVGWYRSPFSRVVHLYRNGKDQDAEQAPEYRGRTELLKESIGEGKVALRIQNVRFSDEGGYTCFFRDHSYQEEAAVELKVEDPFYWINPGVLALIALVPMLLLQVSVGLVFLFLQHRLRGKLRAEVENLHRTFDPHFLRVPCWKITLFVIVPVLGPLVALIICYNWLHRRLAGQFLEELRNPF
In words: flow cytometry on HEK293 cells transiently expressing rat MOG; antibody at 10 µg/mL, RPE-labelled goat anti-human antibody; negative control anti-AVM antibody. The procedure: as §1, §2, §3

For assay [5], the target named is T2, extracellular domain protein of rat MOG …. Put plainly: SPR Biacore T-100, antibody captured, rMOG-GST analyte; KD not unique (kd outside range). On the procedure: as §4
Assay [6] has the same target. In words: SPR Biacore T-100, antibody captured, rMOG-GST analyte. The procedure: as §4

B1: MOG09 antibody (anti-MOG human IgG antibody expressed from N5LG4PE_MOG09) (antibody, V domains shown)
VH: QVQLQESGPGLVKSSETLSLTCAVSGHSISSAYYWGWIRQPPGKGLEWLGSIYHSGNTYYNPSLKSRVTISVDTSKNQFSLRLTSVTAADTAVYYCARGRGYSGYDSGMDVWGQGTTVTVSS
VL: SYVLTQPPSASGTPGQRVTISCSGTSSNIGINSVNWYQQLPGMAPKLVIYSRDQRPSGVPDRFSGSQSGTSASLAINGLQSEDEADYWCSTWDDSLNGWVFGGGTKLTVL
The term koff denotes the rate constant with which the complex falls apart. In general, Kd refers to a measure of binding affinity in units of concentration. Usually kon stands for the rate constant with which the complex forms. On to B1, for which the binding result in assay [1], in assay [3] and in assay [4] was “binds” throughout. In assay [2], the koff was determined as 1.9e-07 s⁻¹. In addition, the dissociation constant (Kd) in assay [5] turned out to be 0.021 nM. Moreover, in assay [6], the kon is 9000 M⁻¹ s⁻¹.
